Measurements taken from the supplement of paper PMC9170038.

System: MS2 coat protein
Experiment: apparent KD of MS2 coat protein; designed switch direction (-1 OFF switch, 1 ON switch): -1; higher = weaker reporter binding
Summary of the method: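 RNA switches sharing common flanks were transcribed by stalled E. coli RNA polymerase on Illumina chips. A doubling series of SNAP-549-labelled MS2 coat protein, from 0.7 or 1.5 nM to 3 µM, was applied in Tris-HCl pH 7.5 buffer with KCl, MgCl2, BSA, DTT, tRNA and Tween-20. Each step lasted 0.8–1.5 h at the bottom of the series and 10–20 min at the top. Normalised cluster fluorescence was curve-fitted, giving apparent KD as the per-design median over clusters.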

[1] = Eterna round: R95, input ligand: microRNA oligo, concentration not stated
[2] = Eterna round: R95, input ligand: FMN 200 uM
[3] = Eterna round: R95, input ligand: none
[4] = input ligand: microRNA oligo, concentration not stated

Row | Sequence | apparent KD of MS2 coat protein [1] [µM] | apparent KD of MS2 coat protein (input ligand: FMN 200 uM) [µM] | apparent KD of MS2 coat protein (input ligand: none) [µM] | further results
1 | GGAAUACAUGAGGAUCACCCAUGUAAGGAUAUGCUGAUUAAAUUGGAUUAAUUAUGCAGCAGAAGGUACAAAAG [Mat - Mod of my Eli Mod D49] (puzzle: Exclusion 1) | 0.0823 |  |  | 
2 | GUUGUUACUGAGGAUAUUAUUUUAUUCGAUUGAUAAGAAGGCAGUACAUGAGGAUCACCCAUGUGGGUAGUUAG [Polaris21] (Eterna round: R97, puzzle: Exclusion 6) |  | 0.27 | 0.338 | 
3 | GUGUGCAGAGGAUAUACAGAGGAAAAGAAGAAAGAAGAGGGACAUGAGGAUCACCCAUGUAGAAGGCUGAGUGU [Excluse me!! 24 - Jieux - Exclusion 2] (puzzle: Exclusion 2) | 0.0304 |  |  | 
4 | GCCUGAGCAGGAUAUUCAAUAAUUCACAUGAGGAUCACCCAUGUCCAGCGAAAGCUAGGAGGAGAAGGGCUCAGGC [Mat - Exclusion 5 - Eli mod - D86] (puzzle: Exclusion 5) | 0.0165 |  |  | apparent KD of MS2 coat protein [2]: 0.0183 µM; apparent KD of MS2 coat protein [3]: 0.0178 µM
5 | ACCUCACAUGAGGAUCACCCAUGUCAGGAUAUCUUUUAAAACGCGAAUCGCGUCGCUGAGAGAAGGGACAUUAA [EX1 #21] (Eterna round: R97, puzzle: Exclusion 1) |  | 0.0996 | 0.0391 | 
6 | AGAUCACAUGAGGAUCACCCAUGUCAGGAUAUGAUACUAUGUACUUCGGUACAUAGUAUCAGAAGGGAUAUGAA [Ex1-3: 67] (puzzle: Exclusion 1) | 0.109 |  |  | 
7 | CGAUGAGGAGUGAGGAUAUCGUGUUCGAAAGAACGUGAGAAGGCACAUGAGGAUCACCCAUGUGAUUCUUAUCG [Omei Ex4B A19] (Eterna round: R97, puzzle: Brourd's mod of Exclusion 4) |  | 0.077 | 0.0255 | 
8 | ACAUGUCAUUGAGGAUAUUGCACACAUGAGGAUCACCCAUGUAUACGGUUGCUCUUACGUGAGUUCGAGAAGGCGAUGUACAUU [Ex NG2 #88] (Eterna round: R96, puzzle: Exclusion NG 2) |  | 0.153 | 0.181 | apparent KD of MS2 coat protein [4]: 0.123 µM
9 | GCUUUUCUUUUCCUUUCUUACAUGAGGAUCACCCAUGUUUCUUGUCGUCCUCGCGUUGCUCGUCUGUCUGUCUGUUG [salish99_TOv1_r3_078] (puzzle: Sensor v3, turn-off variant 1) | 0.135 |  |  | apparent KD of MS2 coat protein [2]: 0.0978 µM; apparent KD of MS2 coat protein [3]: 0.0959 µM
10 | ACUCGAGAAGGAUAUACAUGAGGAUCACCCAUGUUAACUCCCAAGGGCAUCUUAAAAGGUAGAAGGUCUUGAAA [Laonbeus] (puzzle: Exclusion 3) | 0.014 |  |  | apparent KD of MS2 coat protein [2]: 0.0237 µM; apparent KD of MS2 coat protein [3]: 0.0141 µM
11 | AUUUUAGAAGGAUAUUGACCGGUGGACAUGAGGAUCACCCAUGUCGUCCUGCCCAUUCCGUAAGAAGGUCUAGCGU [Eternabot (L1) Solution 96] (Eterna round: R97, puzzle: Exclusion 5) |  | 0.0237 | 0.0248 | 
12 | GAUCUGAUAGGAUAUACAUGAGGAUCACCCAUGUGCGAGCUAGCGAAAGCUAGCUCAGGUAGAAGGGUCAGAUC [Ex3 dot plot directed v2] (puzzle: Exclusion 3) | 0.0117 |  |  | 
13 | UUUUAACAUGAGGAUCACCCAUGUGAGGAUAUCGUAUUUUUUUUUUUUUUUUUUUUUUCGAGAAGGCACAUUUU [My solution] (puzzle: Exclusion 1) | 0.00656 |  |  | apparent KD of MS2 coat protein [2]: 0.00124 µM; apparent KD of MS2 coat protein [3]: 0.0165 µM
14 | UCUGCCGCCGUGAGGAUAUGCCCGCGCGCCCGCGGGCAGAAGGCACAUGAGGAUCACCCAUGUCCCGCGGCAUU [salish99_bmx4_r4_128] (Eterna round: R97, puzzle: Brourd's mod of Exclusion 4) |  | 0.0364 | 0.0174 | 
15 | UAAUUGUGAGGAUAUUCGUUGUUCUCGGAGACGAGAAUAACGGAGAAGGCACAUGAGGAUCACCCAUGUUCCUU [Mat - Exclusion 4 - JL Mod - D13] (Eterna round: R97, puzzle: Exclusion 4) |  | 0.0984 | 0.018 | 
16 | AAAUUGGUAGAGGAUAUCGCACAGGAAACACUGCGAGAAGGCUGCACAUGAGGAUCACCCAUGUUUAGUUGCGA [EX6 #37] (Eterna round: R97, puzzle: Exclusion 6) |  | 0.0225 | 0.0166 | 
17 | GGCGAAGUAGGAUAUACAUGAGGAUCACCCAUGUAACCUGAUGGCGUAGGUCUUCUAUGUAGAAGGGCUGCGCC [jl-ex3-4.38 ViennaUCT mod] (Eterna round: R97, puzzle: Exclusion 3) |  | 0.016 | 0.0156 | 
18 | UUAGAUAGGUCAGGAUAUCGAUUAUUGUAUAGUAUGAUUUACAUGAGGAUCACCCAUGUUAAAUACGAGAAGGGACGUUAGAUU [JR_ExcNG2_Sub022] (Eterna round: R96, puzzle: Exclusion NG 2) |  |  |  | apparent KD of MS2 coat protein [4]: 0.0169 µM

Row | Sequence | apparent KD of MS2 coat protein [1] [µM] | apparent KD of MS2 coat protein (input ligand: FMN 200 uM) [µM] | apparent KD of MS2 coat protein (input ligand: none) [µM] | further results
19 | GUAAUUAAUGUAGGAUAUGCAAGGCGAACCUAAGCAGAAGGACAUGUGGAUCACCCAUGACAUGAGGAUCACCCAUGUAUCGCU [salish99_ExNG1_r4_005] (Eterna round: R96, puzzle: Exclusion NG 1) |  | 0.109 | 0.212 | apparent KD of MS2 coat protein [4]: 0.122 µM
20 | CCGGAUUAGGAGGAUAUAGGAGUCGAUAGACACCUAGAAGGCCUGACAUGAGGAUCACCCAUGUGUCCUACCGG [Mod of Eli 17 - Jieux - Exclusion 6] (Eterna round: R97, puzzle: Exclusion 6) |  | 0.0486 | 0.0229 | 
21 | UAGAUGGGAGGAUAUGCAUAGAUACAGAUUCAUGUAGUGCUACAUGAGGAUCACCCAUGUAGAAGGCCCGUCUU [JL-ex2-2.20 Mayanne mod] (puzzle: Exclusion 2) | 0.0199 |  |  | 
22 | CAGAAACAUGAGGAUCACCCAUGUGAGGAUAUGAAAAAGAAAAGAAAAGAAAGAAGAAUCAGAAGGCACAAAGG [salish99-ex1_r3_081] (puzzle: Exclusion 1) | 0.0308 |  |  | apparent KD of MS2 coat protein [2]: 0.0399 µM; apparent KD of MS2 coat protein [3]: 0.0385 µM
23 | AAGAAACAUGAGGAUCACCCAUGUGAGGAUAUGAGCAAGAAAAGAAAAGAAAGAAGAAUCAGAAGGCACAAAGG [salish99-ex1_r3_050] (Eterna round: R96, puzzle: Exclusion 1) |  | 0.0685 | 0.0374 | apparent KD of MS2 coat protein [4]: 0.0317 µM
24 | UCGUGUCGAGAGGAUAUCUAGGACACCCUUCCAAGAGAAGGCUUGACAUGAGGAUCACCCAUGUACGGGUAAAU [EX6 A.9] (Eterna round: R97, puzzle: Exclusion 6) |  | 0.0256 | 0.0399 | 
25 | UACACUGCAUGAGGAUCAAACAUGAGGAUCACCCAUGUAUAGCAAGCUUUUUGCGCGUCUUAUAAUUAUGUAGUGUA [Electric Eye 19 - Jieux - Sensor, turn-off variant 1] (Eterna round: R97, puzzle: Sensor, turn-off variant 1) |  | 0.0158 | 0.0154 | 
26 | GUGUGGCCUGUAGGAUAUGGUUCCGUUUCGGUUCCAGAAGGACACGAGGAUACAUGAGGAUCACCCAUGUGCUCGUCACUGUGC [salish99_ExNG1_r04_404] (Eterna round: R96, puzzle: Exclusion NG 1) |  | 0.0132 | 0.0182 | apparent KD of MS2 coat protein [4]: 0.0115 µM
27 | AAACGGCAGGGAGGAUAUGCCUACCUGGGUCGUCUUCAAACAUGAGGAUCACCCAUGUAGUCGACGCAGAAGGCCCUCAAAGCC [Ontiis] (Eterna round: R96, puzzle: Exclusion NG 2) |  | 0.0387 | 0.0127 | apparent KD of MS2 coat protein [4]: 0.00822 µM
28 | ACAUGACAUGAGGAUCACCCAUGUUAGGAUAUCCCUCGUCCUGACUGAACGUCGGAAUGGAGAAGGAGCAUGGC [Eternabot (L2) Solution 88] (Eterna round: R97, puzzle: Exclusion 1) |  | 0.0471 | 0.0458 | 
29 | CGUGUCUUUCACGUGAGUGGUGGGUGCAACAGGUGGGUUACAUGAGGAUCACCCAUGUCCUCACUUGCUCGUCUUUU [Grok-var2-04] (puzzle: Sensor v3, turn-off variant 2) | 0.109 |  |  | apparent KD of MS2 coat protein [2]: 0.0361 µM; apparent KD of MS2 coat protein [3]: 0.0372 µM
30 | AAAUUAGCAAGUAGAUCCGACAUGAGGAUCACCCAUGUAAUCUAAAAUUACGCUGCACGAAAGUGCGCUCGUCUUAG [Sensor-V1 #13] (Eterna round: R97, puzzle: Sensor, turn-off variant 1) |  | 0.362 | 0.405 | 
31 | AUACCACGAGGAUAUCGUCUAUUUUACAUGAGGAUCACCCAUGUUAUCUUUGUAAUGUUUCGAGAAGGCGUGUUUU [JR_E5_Sub080] (puzzle: Exclusion 5) | 0.0317 |  |  | 
32 | CCAGGCAGUGUGAGGAUAUGCUGGUCCUUGGAUCAGCAGAAGGCACAUGAGGAUCACCCAUGUGAAGAGCUUGG [JL bmx4 3.24] (puzzle: Brourd's mod of Exclusion 4) | 0.0241 |  |  | 
33 | CUUCUCAGAGUCAGGAUAUAGUCGAAAGGGCUAGACUAGAAGGGACAUGAGGAUCACCCAUGUAAAAUAUCAAA [Razalequ] (puzzle: Brourd's mod of Exclusion 4) | 0.0204 |  |  | 
34 | CCGCAAAUGGAGGAUAUCGUAUCGGAGACGAUACGAGAAGGCCAAACAUGAGGAUCACCCAUGUGUCCUAGCGG [Mat - Exclusion 6 - Eli Mod - D102] (puzzle: Exclusion 6) | 0.0151 |  |  | apparent KD of MS2 coat protein [2]: 0.0293 µM; apparent KD of MS2 coat protein [3]: 0.016 µM
35 | GCAGUAUGAGUUAGGAUAUGAUGAUUUGAAAUGGGUCAGAAGGAACUUGAGGAUCACCCAAGUAAUGAAUUGGU [JR_BMEx4_Sub073] (Eterna round: R97, puzzle: Brourd's mod of Exclusion 4) |  | 0.0946 | 0.0527 | 
